This note sets out measurements from patent publication US20200332006A1 (ULTRAHUMAN NINE, published 2020).

Assay [1] has as its target T1, human BTN2A1, expressed on HEK293 cells (human, UniProt Q7KYR7 29-527).
T1 construct: also called NM_007049
T1 sequence: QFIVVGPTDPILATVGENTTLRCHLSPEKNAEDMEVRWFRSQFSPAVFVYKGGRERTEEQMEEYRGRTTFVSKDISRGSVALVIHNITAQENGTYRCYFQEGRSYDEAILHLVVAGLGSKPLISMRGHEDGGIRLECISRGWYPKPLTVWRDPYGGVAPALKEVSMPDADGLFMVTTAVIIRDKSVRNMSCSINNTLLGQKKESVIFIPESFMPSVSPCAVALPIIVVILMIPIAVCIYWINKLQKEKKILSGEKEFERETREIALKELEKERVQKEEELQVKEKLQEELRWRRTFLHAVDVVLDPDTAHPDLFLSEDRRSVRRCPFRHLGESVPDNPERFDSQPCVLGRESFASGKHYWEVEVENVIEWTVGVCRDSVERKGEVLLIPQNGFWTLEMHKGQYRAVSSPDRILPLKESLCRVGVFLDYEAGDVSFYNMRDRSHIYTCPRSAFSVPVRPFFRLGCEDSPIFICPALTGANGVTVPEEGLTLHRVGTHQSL
Kind of assay: Retrogenix cell microarray, fixed HEK293 cells. As to the method:
(§1) Human cell membrane receptor proteome arrays were performed at Retrogenix Ltd. Primary screens: 2 μg/ml of each antibody was screened for binding against fixed HEK293 cells/slides expressing 5528 human plasma membrane and tethered secreted proteins individually. […] Antibody binding was detected using AF647 fluorescent secondary anti-human IgG1 antibody. Primary hits (duplicate spots) were identified by analysing fluorescence (AF647 and ZsGreen1) on ImageQuant. Confirmation/specificity screens: Expression vectors encoding ZsGreen1 only, or ZsGreen1 and CD20, PD1, BTN2A1, or LSAMP were transfected into human HEK293 cells. […] Cells were washed, and incubated with the same AF647 anti-human IgG Fc detection antibody as used in the cell microarray screens. Cells were again washed, and analysed by flow cytometry using an Accuri flow cytometer (BD). A 7AAD live/dead dye was used to exclude dead cells, and ZsGreen1-positive cells (i.e. transfected cells) were selected for analyses.

Assay [2] concerns the target T2, cynomolgus monkey PD1, membrane-expressed on CHO-K1 stable cell line (cynomolgus monkey, UniProt Q15116 25-288 (human entry)).
T2 construct: Genscript cell line M00572; also called membrane-presented cyno PD1
T2 chain: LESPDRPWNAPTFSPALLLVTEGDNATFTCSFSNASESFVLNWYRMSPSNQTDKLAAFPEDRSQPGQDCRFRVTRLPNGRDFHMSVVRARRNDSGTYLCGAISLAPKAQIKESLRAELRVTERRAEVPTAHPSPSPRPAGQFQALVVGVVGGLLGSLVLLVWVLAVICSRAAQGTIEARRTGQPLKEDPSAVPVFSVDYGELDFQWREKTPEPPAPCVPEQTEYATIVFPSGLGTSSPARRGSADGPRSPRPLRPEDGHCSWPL
The assay is described as follows: flow cytometry on CHO cells stably transfected with cyno PD1 (reference antibody). How it is done:
The IgG samples were titrated in three-fold serial dilutions starting at 500 nM to 0.98 nM. Binding of IgGs was detected with a mouse anti-human IgG conjugated to FITC. Results were analyzed by examining the Mean Fluorescence Intensity (MFI) of 10000 cells per sample in the BL-1 channel detector of a flow cytometer (Attune™ NxT Acoustic Focusing Cytometer, Invitrogen/ThermoFisher Scientific).
Antibodies to PD1 were analysed for concentration-dependent binding at the cell surface via flow cytometry. Initial analyses were performed on CHO cells stably-transfected with human or cyno PD1.

Assay [3] addresses T3, human CD20, expressed on HEK293 cells (human, UniProt P11836 1-297).
T3 construct: whole, on cells
T3 sequence (looked up): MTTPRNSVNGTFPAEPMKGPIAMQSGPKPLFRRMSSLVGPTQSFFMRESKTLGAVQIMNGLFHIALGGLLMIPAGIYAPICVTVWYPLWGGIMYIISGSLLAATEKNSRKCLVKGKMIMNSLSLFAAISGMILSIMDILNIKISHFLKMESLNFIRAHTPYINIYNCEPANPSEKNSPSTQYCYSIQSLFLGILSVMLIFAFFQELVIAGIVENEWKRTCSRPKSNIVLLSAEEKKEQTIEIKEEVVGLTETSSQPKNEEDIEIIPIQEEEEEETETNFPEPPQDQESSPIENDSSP
The assay is described as follows: flow cytometry on live transfected HEK293 cells. As to the method:
(§2) FIG. 11. […] Analyses of binding specificity were performed on HEK293 cells transiently transfected with plasmids encoding either human PD1, human BTN2A1, human LSAMP, human CD20 or ZS green marker only. Each antibody was used in staining at […] concentration and histograms are indicated per antibody in this figure.
as §1

Assay [4] concerns the target T4, human LSAMP, expressed on HEK293 cells (human, UniProt Q13449 29-315).
T4 construct: also called BC033803
T4 sequence: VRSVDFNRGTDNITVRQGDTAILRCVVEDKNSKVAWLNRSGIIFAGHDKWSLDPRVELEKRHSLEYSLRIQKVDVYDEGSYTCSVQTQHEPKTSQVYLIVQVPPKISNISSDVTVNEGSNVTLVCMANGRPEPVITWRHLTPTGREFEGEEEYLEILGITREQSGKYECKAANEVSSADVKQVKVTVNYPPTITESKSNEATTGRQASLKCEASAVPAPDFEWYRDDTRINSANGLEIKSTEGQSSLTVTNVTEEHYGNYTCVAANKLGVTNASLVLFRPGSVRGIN
The assay is described as follows: flow cytometry on live transfected HEK293 cells. How it is done: as §2, §1

Assay [5] deals with T5, human PD1, membrane-expressed on transfected cells (CHO-K1 stable line, HEK293 transfectants, PD1 effector … (human, UniProt Q15116 25-288)).
T5 construct: also called PD1 (PDCD1) NM_005018; membrane-presented human PD1
T5 sequence (Q15116 25-288 limits assumed): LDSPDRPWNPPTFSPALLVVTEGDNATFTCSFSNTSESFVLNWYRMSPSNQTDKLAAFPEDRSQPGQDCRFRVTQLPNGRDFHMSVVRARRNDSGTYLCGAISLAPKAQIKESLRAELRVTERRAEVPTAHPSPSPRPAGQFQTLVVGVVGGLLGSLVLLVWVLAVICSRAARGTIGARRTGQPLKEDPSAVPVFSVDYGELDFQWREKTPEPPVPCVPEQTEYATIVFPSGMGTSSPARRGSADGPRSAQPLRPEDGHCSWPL
Kind of assay: Retrogenix cell microarray, fixed HEK293 cells, 2 ug/ml IgG.

The target in assay [6] is T3, human CD20, expressed on HEK293 cells. Kind of assay: flow cytometry on transfected HEK293 cells, 2 ug/ml IgG. As to the method:
as §2, §1

Assay [7] deals with T4, human LSAMP, expressed on HEK293 cells. The assay is described as above. As to the method:
as §2, §1

In assay [8] the target is T1, human BTN2A1, expressed on HEK293 cells. The assay is described as above. How it is done:
as §2, §1

B1: Hu317 humanized anti-PD1 antibody, IgG1null format (antibody, V domains shown)
VH: QVQLQESGPGLVKPSETLSLTCTVSGFSLTSYGVHWIRQPPGKGLEWIGVIYADGSTNYNPSLKSRVTISKDTSKNQVSLKLSSVTAADTAVYYCARAYGNYWYIDVWGQGTTVTVSS
VL: DIVMTQSPDSLAVSLGERATINCKSSESVSNDVAWYQQKPGQPPKLLINYAFHRFTGVPDRFSGSGYGTDFTLTISSLQAEDVAVYYCHQAYSSPYTFGQGTKLEIK
notes: Tested as IgG1null (human IgG1 L234A, L235A, G237A) with human Ckappa; also called hu317 IgG1
In the case of B1, the binding result in assay [1] is listed as “no binding (tested: 2 ug/ml)”; in assay [2] it was “binds”; in assay [3], “no binding (tested: 2 ug/ml)”; in assay [4], “no binding (tested: 2 ug/ml)”; in assay [5] it was “binds”. Also, the “fold fluorescence change versus mock (ZSgreen only) cells” value in assay [6] was 1.4 fold; in assay [7], 1.5 fold; in assay [8] it was 1.2 fold.
